From the supplement of paper PMC10567573
± gives the standard deviation.

Assay: protein stability index of a GFP-peptide fusion (GPS, HEK-293T) (PSI 1-6); higher = more stable
[1] = treatment: DMSO, c terminus: a fixed tail appended
[2] = treatment: MLN4924 1 uM, 8 h, c terminus: a fixed tail appended
[3] = treatment: DMSO, c terminus: native
[4] = treatment: MLN4924 1 uM, 8 h, c terminus: native
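Also: 24-mer peptide tiles fused after GFP, lentivirally expressed, FACS-sorted into six equal bins by GFP/DsRed ratio, decoded by Illumina sequencing, PSI is the read-weighted mean bin number.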

| Sequence | protein stability index [1] | protein stability index [2] | protein stability index [3] | protein stability index [4] |
| --- | --- | --- | --- | --- |
| NEQVLTTEHEKKQKLETDAMFRLE [YJU2B] | 5.43 ± 0.15 | 5.43 ± 0.19 | – | – |
| CSSSGKDGNLCLHVPNPPSGISFP [HESX1] | 3.15 ± 0.18 | 3.25 ± 0.33 | – | – |
| VLSSTTLLPRQPLPLGIKVYEDET [PALM] | 4.23 ± 0.21 | 4.18 ± 0.16 | – | – |
| IDVSNPQTVGVGRGRFTTYEIRVK [SNX3] | 2.56 ± 0.25 | 2.69 ± 0.35 | – | – |
| PPPTTAPHKERYFDRVDENNPEYL [ADD1] | 5.06 ± 0.17 | 5.14 ± 0.17 | – | – |
| WYSRLQACQWGGNFLAFSVRRVS | – | – | 3.17 ± 0.58 | 2.15 ± 0.83 |
| GSELRDFPGRPMGHLSKDVDENDS [DLC1] | 5.63 ± 0.24 | 5.51 ± 0.17 | – | – |
| IVLLEELLPKGSKEEQRDYVFYLA [FIS1] | 2.33 ± 0.34 | 2.16 ± 0.44 | – | – |
| ENVVHGHILAAEQLSRDSTLGGKA [NSDHL] | 4.52 ± 0.11 | 4.6 ± 0.3 | – | – |
| EEELIRIFQEQQKKWQQYRSVRRE [FAM9B] | 3.92 ± 0.33 | 4.07 ± 0.49 | – | – |
| GHSLKNLEHRLNEMERTQAQLRDA [RASAL3] | 4.51 ± 0.24 | 4.58 ± 0.22 | – | – |
| LECVKFASHCLMNHPDLAKDLTEY [PDS5B] | 2.62 ± 0.17 | 2.77 ± 0.78 | – | – |
| VQRKSDFDQTVFQEVFEPPHYELC [NETO1] | 3.44 ± 0.23 | 3.62 ± 0.3 | – | – |
| IVVGRLKVALEPQLWELGKVLRKA [LPCAT4] | 2.31 ± 0.37 | 2.61 ± 0.49 | – | – |
| PPLSHIMAQPLCIRALLNLHTDVG [NEK8] | 2.21 ± 0.41 | 2.03 ± 0.13 | – | – |
| YNSEILEEAISVVMSGKMSVSKAQ [LCOR] | 2.96 ± 0.17 | 3.03 ± 0.41 | – | – |
| HAPKIGSNGVEMAAKFPSGSQRAR [SDE2] | 4.56 ± 0.13 | 4.62 ± 0.19 | – | – |
| AVAHMKYMGKGSMTGLALKHMFER [MATN2] | 2.07 ± 0.3 | 2.34 ± 0.26 | – | – |
| LHRTFDPHFLRVPCWKITLFVIVP [MOG] | 3.17 ± 0.56 | 3.08 ± 0.63 | – | – |
| GDEMTSLSEYVSRMKETQKSIYYI [HSP90AB1] | – | 2.81 ± 0.3 | – | – |
| SAFGNVKLVVHDCPVWDIFDSDWY [RHOBTB3] | 2.17 ± 0.33 | 2.2 ± 0.12 | – | – |
| PYMSIQPAEDPDDYDDGFSMKHTA [SMARCE1] | 4.88 ± 0.12 | 4.78 ± 0.21 | – | – |
| SEEELTHIFGDLDSYIPLHEDLLT [NET1] | 3.88 ± 0.19 | 4.03 ± 0.33 | – | – |

| Sequence | protein stability index [1] | protein stability index [2] | protein stability index [3] | protein stability index [4] |
| --- | --- | --- | --- | --- |
| EIFQKPFQTLMFLVRDWSFPYEYS [ATL3] | 2.73 ± 0.56 | 3.52 ± 0.089 | – | – |
| AAASPYIRTKLNYNPPKDDGSTYK [GAN] | 3.98 ± 0.11 | 3.79 ± 0.2 | – | – |
| VVSTSGEQMKVYKCEHCRVLFLDH [IKZF1] | 2.69 ± 0.4 | 2.3 ± 0.64 | – | – |
| TEPEDDRGPVVPKHSTFGQSLTQR [GNAS] | 4.89 ± 0.31 | 4.85 ± 0.2 | – | – |
| LHRGQLSLFCLEDKELLCCSCQAD [TRIM35] | 2.68 ± 0.1 | 2.79 ± 0.31 | – | – |
| SMGFSARYNFTPDPDFKDLGALKP [NETO1] | 3.02 ± 0.33 | 3.26 ± 0.17 | – | – |
| RSTNLLAAETASLEEQLQGWGEVM [ARL6IP1] | 3.85 ± 0.32 | 4.15 ± 0.23 | – | – |
| RALNSVPVIIAAVGTRQNEELPCT [RHOBTB3] | 3.39 ± 0.24 | 3.46 ± 0.16 | – | – |
| LNFWNKQDTLELESPSLTSTPVCS [MYBL2] | 3.58 ± 0.12 | 3.63 ± 0.2 | – | – |
| YQELLGLSFEQMTDAHVWNKSVTL [NLN] | 2.37 ± 0.093 | 2.3 ± 0.28 | – | – |
| AQDLGLKMTDLLSRRLQLGSEENG [PCDHGC5] | 3.94 ± 0.22 | 3.77 ± 0.19 | – | – |
| PAYGMSPSLSTITSTSSSITSSIP [DVL3] | 3.82 ± 0.26 | 3.65 ± 0.27 | – | – |
| CDYSQYFKTIEELRDKIMATTIDN [KRT15] | 3.28 ± 0.12 | 3.22 ± 0.17 | – | – |
| MEKFREDEGFIKEEERPLPEKEYQ [KCNA1] | 5.38 ± 0.32 | 5.53 ± 0.31 | – | – |
| LATRSNEKQELQELNDRFANFIEK [PRPH] | 4.43 ± 0.25 | 4.37 ± 0.095 | – | – |
| CLHHVHYLATEYLETHFRDVSSTE [GAN] | 2.37 ± 0.23 | 2.52 ± 0.54 | – | – |
| TQESTFQELCEGLLEESDGEGEPG [NOP53] | 5.59 ± 0.22 | 5.51 ± 0.22 | – | – |
| IIKTEKVDLELFPSPDMECADVPL [ETS1] | 3.99 ± 0.19 | 3.97 ± 0.22 | – | – |
| EVVVAESELQKELKKVKTAHSNDG [DPCD] | 5.18 ± 0.25 | 5.25 ± 0.32 | – | – |
| VSFVERILKSQKERQCALRVFKAR [FBXO39] | 2.35 ± 0.41 | 2.55 ± 0.21 | – | – |
| GIIRCPDGISIPELREACDYLCIS [BTBD10] | 2.36 ± 0.35 | 2.5 ± 0.2 | – | – |
| SPSTRGSPNRSLPSPGVLCGSARP [ATF4] | 4.49 ± 0.46 | 4.88 ± 0.18 | – | – |
| PTTSHRLSRHDKAVQRFCLIGSLS [NETO1] | 2.28 ± 0.23 | 2.45 ± 0.48 | – | – |

| Sequence | protein stability index [1] | protein stability index [2] | protein stability index [3] | protein stability index [4] |
| --- | --- | --- | --- | --- |
| QPIRGVEGSDYINASFIDGYRQQK [PTPRD] | 4.31 ± 0.27 | 4.37 ± 0.19 | – | – |
| VLLMHMPAEQAFWCLVQICEKYLP [TBC1D10A] | 2.96 ± 0.37 | 2.88 ± 0.57 | – | – |
| YYTTPIYRFRMKCHLCVNYIEMQT [YJU2B] | 2.73 ± 0.43 | 2.51 ± 0.64 | – | – |
| LLFKDLIKLFACYNDGVINLLEKF [SNAP91] | 3.04 ± 0.34 | 2.81 ± 0.87 | – | – |
| TKLPENQAIQMRLVDVACKHLTDT [INTS4] | 3.41 ± 0.11 | 3.58 ± 0.069 | – | – |
| QGLIEDCQLALQQKRETLSPLCLI [KCTD13] | 2.47 ± 0.17 | 2.64 ± 0.25 | – | – |
| TDGMILGPEDLSYQIYDVSGESNS [LARP4] | 4.71 ± 0.22 | 4.58 ± 0.37 | – | – |
| SWYHWKGFEFSVPFTEMKLRPRNF [TNXB] | 2.47 ± 0.81 | 3.15 ± 0.53 | – | – |
| TLGYMPTEMELLEVSQHIKMRMGG [CABP4] | 2.96 ± 0.18 | 2.94 ± 0.54 | – | – |
| MNTNSKEVLSLGVQVPEAWEELLT [ZSCAN9] | 3.08 ± 0.47 | 3.52 ± 0.34 | – | – |
| VAVQEQEIARREKELEARVRKPAE [FLOT1] | 5.44 ± 0.42 | 5.31 ± 0.17 | – | – |
| IREALHELLCCTNVSTKEGIHLAL [INTS4] | 2.41 ± 0.46 | 2.48 ± 0.3 | – | – |
| VREIVKECSNIPLSQPQQGEAMLA [GAN] | 4.28 ± 0.37 | 4.31 ± 0.36 | – | – |
| QLPISSENDSTPTVSTSEVTSQQE [TAF7L] | 5.53 ± 0.28 | 5.5 ± 0.13 | – | – |
| EEETQFYISETVLAIDAIHQLGFI [STK38L] | 2.48 ± 0.51 | 2.58 ± 0.2 | – | – |
| VKCNGALINTSDTVQHGAVYSLEP [SDE2] | 3.57 ± 0.5 | 3.75 ± 0.33 | – | – |
| QKHTEVETVDLVLKLKNKLLQADR [DENND6A] | 3.49 ± 0.33 | 3.45 ± 0.32 | – | – |
| ILDLSCNKLTTLPSDFCGLTHLVK [LRRC59] | 2.02 ± 0.38 | 2.09 ± 0.022 | – | – |
| EAAGGESALAPSVFKQAKDKVSDG [MAP2] | 5.46 ± 0.26 | 5.43 ± 0.32 | – | – |
| LKDHFSHLLGIPHSVLQIRYSGKI [IQUB] | 2.19 ± 0.38 | 2.06 ± 0.39 | – | – |
| KGISQTNLITTVTPEKKAEEERDE [EPB41L3] | 5.54 ± 0.13 | 5.59 ± 0.2 | – | – |
| MIPGFRDLTSEDQIVLLKSSAIEV [VDR] | 2.33 ± 0.25 | 2.43 ± 0.18 | – | – |
| FVLFLFAYLVTVRGNLSILAAVLV [OR3A1] | 3.21 ± 0.52 | 3.33 ± 0.34 | – | – |

| Sequence | protein stability index [1] | protein stability index [2] | protein stability index [3] | protein stability index [4] |
| --- | --- | --- | --- | --- |
| TKRDSFLKRLYRAPIDWIEEYTTG [ALG2] | 2.18 ± 0.54 | 2.23 ± 0.4 | – | – |
| ILLSWTPPRSDTIANYELVYKDGE [PTPRD] | 2.03 ± 0.41 | 2.23 ± 0.42 | – | – |
| DFCEPSFVTGNCLEISPDCSQYDR [PCMTD2] | 4.38 ± 0.32 | 4.4 ± 0.22 | – | – |
| VCYQYPGYRGYQYILECDHHGGDY [CRYBA1] | 2.35 ± 0.4 | 2.08 ± 0.18 | – | – |
| NAPNSLGVSALCAICGDRATGKHY [HNF4A] | 2.84 ± 0.12 | 3.2 ± 0.15 | – | – |
| IITVTLNMEKYNFLGISIVGQSNE [DVL3] | 3.15 ± 0.69 | 3.04 ± 0.4 | – | – |
| NTLQTYIRCRHPPPGSHLLYAKMI [VDR] | 2.21 ± 0.15 | 2.33 ± 0.25 | – | – |
| ADFEQKMLDSALRFQAMEETHLRH [FCHO1] | 3.88 ± 0.29 | 3.93 ± 0.24 | – | – |
| FPYVVLACFLVRGLLLRGAVDGIL [SLC6A17] | 2.8 ± 0.65 | 3.12 ± 1.1 | – | – |
| VFSQMIHLNETVKAPDIECVLRCS [FEM1B] | 2.13 ± 0.36 | 2.11 ± 0.35 | – | – |
| EAEKLERQLALPATEQAATQESTF [NOP53] | 5.43 ± 0.32 | 5.53 ± 0.1 | – | – |
| VVKVLLESGASIEDHNENGHTPLM [ANKRD17] | 3.17 ± 0.25 | 3.25 ± 0.26 | – | – |
| ADRAQKMDGESEEEQESVDTGEEE [EHMT1] | 5.78 ± 0.16 | 5.73 ± 0.32 | – | – |
| KSEYMEIEEDMNNSIAHYRQVNIR [KCNA1] | 3.34 ± 0.2 | 3.57 ± 0.53 | – | – |
| ARGTPSPKRMPSGRGGRDRFTAES [FSD1] | 4.43 ± 0.3 | 4.69 ± 0.069 | – | – |
| LSLLDNNIPGNSTLITAVELERFV [FBXO33] | 2.44 ± 0.95 | 2.36 ± 0.15 | – | – |
| GILRARRGEGIQAPSFSSYLYFLF [SOAT2] | 2.29 ± 0.31 | 2.11 ± 0.28 | – | – |
| SVLNGKFANLIKEFVIIDCRYPYE [CDC25A] | 2.63 ± 0.36 | 2.55 ± 1 | – | – |
| PSSLNSPSSYNCSQSILPLEHGSI [ESR2] | 3.15 ± 0.31 | 3.13 ± 0.12 | – | – |
| RRQTSMTDFYHSKRRLIFSKRKP [CDKN1A] | – | – | 3.33 ± 0.28 | 3.71 ± 0.53 |
